Results reported in patent publication US20020151683A1 (MOGAM BIOTECHNOLOGY RESEARCH INSTITUTE, published 2002).

B1: X3 peptide derived from HBV X protein (positions 052-060) (peptide)
peptide: HLSLRGLFV
B2: X6 peptide derived from HBV X protein (positions 115-123) (peptide)
peptide: CLFKDWEEL
B3: X7 peptide derived from HBV X protein (positions 126-134) (peptide)
peptide: EIRLKVFVL

target: T1, HLA-A2.1, a human MHC Class I molecule, at the surface of T2 cell (human); assay: T2 cell MHC stabilisation assay, peptide 1-100 ug/ml, flow cytometry with BB7.2 anti-HLA-A2.1 and FITC anti-mouse Ig
T1 construct: detected with BB7.2 antibody against HLA-A2.1; also called MHC Class I molecules at the surface of T2 cell
Method: Seven different peptides including the peptides as disclosed in Table 1 above which were derived from HBV X protein were synthesized chemically and dissolved in phosphate buffered saline (hereinafter, referred to as “PBS”). In order to investigate whether the peptides can bind to MHC Class I molecules associated with induction of CTL, each peptide was added to T2 cell line in a concentration of 100, 64, 32, 16, 8, 4, 2 and 1 μg/ml, respectively, and reacted at 37° C. for 4 hours. And then, the cells were washed with PBS to remove unreacted peptides, added with BB7.2 antibody against HLA-A2.1, a human MHC Class I molecule, and reacted at 4° C. for 1 hour. The cells were washed with PBS again, added with fluorescein isothiocyanate (FITC)-conjugated anti-mouse immunoglobulin antibody, and reacted at 4° C. for 1 hour. Then, fluorescence of the cells was determined using fluorocytometer (FACScan, BECTON DICKINSON) and the results were shown in FIG. 1.

Binder | binding result
B1 | binds
B2 | binds
B3 | binds
